{"source": "patent US20250066436A1", "key": {"[1]": {"target": "endothelial cell protein C receptor (EPCR) (human) (UniProt Q9UNN8)", "sequence (Q9UNN8 18-238)": "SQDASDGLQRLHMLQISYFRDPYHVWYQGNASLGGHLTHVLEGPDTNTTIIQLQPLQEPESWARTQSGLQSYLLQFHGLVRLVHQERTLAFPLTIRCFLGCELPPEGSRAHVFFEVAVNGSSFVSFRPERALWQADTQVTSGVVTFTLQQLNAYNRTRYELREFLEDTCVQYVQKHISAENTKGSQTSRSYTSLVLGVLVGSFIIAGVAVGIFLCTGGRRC", "test": "binding to EPCR on endothelial cells; reference is wild type APC"}, "[2]": {"target": "endothelial cell protein C receptor (EPCR) (human) (UniProt Q9UNN8)", "test": "binding to EPCR on endothelial cells; reference is wild type"}, "[3]": {"target": "endothelial cell protein C receptor (EPCR) (human) (UniProt Q9UNN8)", "test": "binding to EPCR; reference is the natural ligands of EPCR"}, "[4]": {"target": "endothelial cell protein C receptor (EPCR) (human) (UniProt Q9UNN8)", "test": "cell-based or functional assay"}, "[5]": {"target": "PAR1^WT/β-11 (PAR1 with the GFP 11th β-strand fused to its C-terminus) (UniProt P25116)", "test": "cell-based or functional assay"}, "[6]": {"target": "endothelial cell protein C receptor (EPCR) (human) (UniProt Q9UNN8)", "test": "flow cytometry, fluorescently labelled protease on endothelial cells"}, "[7]": {"target": "endothelial cell protein C receptor (EPCR) (human) (UniProt Q9UNN8)", "test": "flow cytometry, labelled active-site blocked protease on endothelial cells"}, "[8]": {"target": "AP-PAR1 (PAR1 with an N-terminal alkaline phosphatase tag) (UniProt P25116)"}, "[9]": {"target": "T1, AP-PAR1 (PAR1 with an N-terminal alkaline phosphatase tag), P25116", "T1 chain": "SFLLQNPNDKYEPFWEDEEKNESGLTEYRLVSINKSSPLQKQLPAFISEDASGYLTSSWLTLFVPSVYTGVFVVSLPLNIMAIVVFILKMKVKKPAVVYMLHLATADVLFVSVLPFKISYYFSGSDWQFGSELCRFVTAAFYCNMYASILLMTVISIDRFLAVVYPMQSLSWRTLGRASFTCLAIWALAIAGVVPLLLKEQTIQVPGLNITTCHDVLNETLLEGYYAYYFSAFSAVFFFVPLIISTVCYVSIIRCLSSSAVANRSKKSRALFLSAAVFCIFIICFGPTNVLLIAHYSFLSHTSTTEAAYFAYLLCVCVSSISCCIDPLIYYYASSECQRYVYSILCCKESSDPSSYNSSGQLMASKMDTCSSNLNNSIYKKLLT"}}}
{"molecule": "APC^CIDRα1.4 (truncated human activated protein C fused to the PfEMP1 CIDRα1.4 HB3var03 domain), proteolytically active (enzyme)", "values": [{"measurement": "fold enhanced affinity compared to wild type APC", "setting": "[1]", "result": "< 100", "unit": "fold"}, {"measurement": "fold increase in affinity compared to wild type", "setting": "[2]", "result": "> 100", "unit": "fold"}, {"measurement": "fold higher affinity than its natural ligands", "setting": "[3]", "result": "< 100", "unit": "fold"}, {"measurement": "β-arrestin 2 recruitment to activated PAR1 in HEK 293T β-arrestin 2 reporter cells", "setting": "[4]", "result": 3, "unit": "fold"}, {"measurement": "β-arrestin 2 recruitment to PAR1 (GFP formation by flow cytometry)", "setting": "[5]", "result": "> 2", "unit": "fold"}]}
{"molecule": "P-APC^CIDR (APC^CIDRα1.4 active-site blocked with biotinylated PPACK) (enzyme)", "values": [{"measurement": "lowest concentration tested at which bound protease was present", "setting": "[6]", "result": 0.1, "unit": "nM"}, {"measurement": "concentration at which cell binding was still clearly visible", "setting": "[7]", "result": "< 0.3", "unit": "nM"}]}
{"molecule": "wild type activated protein C (APC), proteolytically active", "values": [{"measurement": "PAR1 proteolysis (release of alkaline phosphatase tag into the supernatant)", "setting": "[8]", "result": "APC^CIDR cleaves PAR1 with comparable activity as APC"}]}
{"molecule": "APC^CIDRα1.4 (truncated human activated protein C fused to the PfEMP1 CIDRα1.4 HB3var03 domain), proteolytically active (protein) MRLAVGALLVCAVLGLCLPDCGVECKNETCTPKTVIYPDCGKNEKYEPPGDAKNTEINVINSGDKEGYIFEKLSEFCTNENNENGKNYEQWKCYYDNKKNNNKCKMEINIANSKLKNKITSFDEFFDFWVRKLLIDTIKWETELTYCINNTDVTDCNKCNKNCVCFDKWVKQKEDEWTNIMKLFTNKHDIPKKYYLNINDLFDSFFFQVIYKFNEGEAKWNELKENLKKQIASSKANNGTKDSEAAIKVLFNHIKEIATICKDNNTNEGCGDQCLVLPLEHPCASLCCGHGTCIDGIGSFSCDCRSGWEGRFCQREVSFLNCSLDNGGCTHYCLEEVGWRRCSCAPGYKLGDDLLQCHPAVKFPCGRPWKRMEKKRSHLKRDTEDQEDQVDPRLIDGKMTRRGDSPWQVVLLDSKKKLACGAVLIHPSWVLTAAHCMDESKKLLVRLGEYDLRRWEKWELDLDIKEVFVHPNYSKSTTDNDIALLHLAQPATLSQTIVPICLPDSGLAERELNQAGQETLVTGWGYHSSREKEAKRNRTFVLNFIKIPVVPHNECSEVMSNMVSENMLCAGILGDRQDACEGDSGGPMVASFHGTWFLVGLVSWGEGCGLLHNYGVYTKVSRYLDWIHGHIRDKEAPQKSWAP", "values": [{"measurement": "PAR1 proteolysis (release of alkaline phosphatase tag into the supernatant)", "setting": "[9]", "result": "APC^CIDR cleaves PAR1 with comparable activity as APC"}]}
